Patent US20260146093A1 (DREN BIO MANAGEMENT, published 2026)

T1: human Dectin-1 isoform A on HEK-Blue hDectin-1a cells (human, UniProt Q9BXN2 1-247)
T1 sequence: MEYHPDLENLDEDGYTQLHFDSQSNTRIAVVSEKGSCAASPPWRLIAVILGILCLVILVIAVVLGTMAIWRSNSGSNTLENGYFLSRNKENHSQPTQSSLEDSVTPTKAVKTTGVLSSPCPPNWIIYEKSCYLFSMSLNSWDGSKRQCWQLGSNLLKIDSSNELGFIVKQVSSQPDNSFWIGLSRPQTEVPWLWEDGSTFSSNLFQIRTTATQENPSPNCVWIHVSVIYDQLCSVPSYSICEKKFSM

T2: human Trop-2 expressed on cells (A-431, NCI-N87, SKBR3, CHO-K1-hTrop2) (human, UniProt P09758 27-323)
T2 sequence: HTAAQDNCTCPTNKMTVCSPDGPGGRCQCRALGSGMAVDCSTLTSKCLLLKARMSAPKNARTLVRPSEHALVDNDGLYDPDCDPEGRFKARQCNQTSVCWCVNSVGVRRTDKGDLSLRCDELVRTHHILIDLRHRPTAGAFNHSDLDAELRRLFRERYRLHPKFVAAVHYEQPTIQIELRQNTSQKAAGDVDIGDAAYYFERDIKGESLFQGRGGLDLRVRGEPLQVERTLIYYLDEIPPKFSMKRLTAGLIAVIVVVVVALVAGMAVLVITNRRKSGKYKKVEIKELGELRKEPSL


Legend:
[1] = molecular target: T1, human Dectin-1 isoform A on HEK-Blue …; assay: flow cytometry on HEK cells expressing hDectin-1 (sheet title: Binding to HEK Blue Dectin 1a cells)
[2] = molecular target: T2, human Trop-2 expressed on cells (A-431, …); assay: flow cytometry on CHO-K1 cells expressing hTrop-2 (sheet title: Binding to Chok1 hTrop2)
[3] = molecular target: T1, human Dectin-1 isoform A on HEK-Blue …; assay: cell-based or functional assay

EC50 (read off the curve) [1] [nM] | EC50 (read off the curve) [2] [nM] | EC50 of SEAP secretion by the hDectin-1 reporter cells (hDec1 Reporter Assay; the Trop-2-expressing cell line is not named) [3] [nM] | Binder
~0.7 | ~5 | 0.62 | Dectin-1 2M24.124 x Trop-2 clone A hIgG1 (bispecific antibody, member of group m9; also called 2M24.124xTrop-2 clone A hG1; disulfide-engineered Fab-format bispecific, clone A) anti-Dectin-1 heavy chain: QVQLVQSGAEVKKPGASVKVSCKASGYTFTDYYMHWVRQAPGQGLEWMGWINPNEGDTNYAQKFEGRITMTRDTSISTAYMELSRLRSDDTAVYYCARNTGAYSFGYWGCGTLVTVSS anti-Dectin-1 light chain: DIQMTQSPSSVSASVGDRVTITCRASQGISSWLAWYQQKPGKCPKLLIYGASDLQSGVPSRFSGSGSGTDFTLTISSLQPEDFATYYCQQAYGFPFTFGPGTKVDIK anti-Trop-2 heavy chain: QVQLQQSGSELKKPGASVKVSCKASGYTFTNYGMNWVKQAPGQGLKWMGWINTYTGEPTYTDDFKGRFAFSLDTSVSTAYLQISSLKADDTAVYFCARGGFGSSYWYFDVWGQGSLVTVSS anti-Trop-2 light chain: DIQLTQSPSSLSASVGDRVSITCKASQDVSIAVAWYQQKPGKAPKLLIYSASYRYTGVPDRFSGSGSGTDFTLTISSLQPEDFAVYYCQQHYITPLTFGAGTKVEIK
~0.7 | ~7 | 0.61 | Dectin-1 2M24.124 x Trop-2 clone B hIgG1 (bispecific antibody, member of group m9; also called 2M24.124xTrop-2 clone B hG1; disulfide-engineered Fab-format bispecific, clone B) anti-Dectin-1 heavy chain: QVQLVQSGAEVKKPGASVKVSCKASGYTFTDYYMHWVRQAPGQGLEWMGWINPNEGDTNYAQKFEGRITMTRDTSISTAYMELSRLRSDDTAVYYCARNTGAYSFGYWGCGTLVTVSS anti-Dectin-1 light chain: DIQMTQSPSSVSASVGDRVTITCRASQGISSWLAWYQQKPGKCPKLLIYGASDLQSGVPSRFSGSGSGTDFTLTISSLQPEDFATYYCQQAYGFPFTFGPGTKVDIK anti-Trop-2 heavy chain: QVQLQESGPGLVKPSGTLSLTCAVSGGSISSSNWWSWVRQPPGKGLEWIGEIYHDGSTDYFPSLKSRVTISVDKSKNQFSLKLSSVTAADTAVYYCARDNWGFDYWGQGTLVTVSS anti-Trop-2 light chain: DIVLTQSPGTLSLSPGERATLSCRASQSVSSSYLAWYQQKPGQAPRLLISGASSRATGIPDRFSGSGSGTDFTLTISRLEPEDFAVYYCQQYGSSHRTFGQGTKVEIK
